The results in this text go back to patent US20120294874A1.

Assay [1] has as its target HLA-A201/LMP-1 monomer (recombinant, membrane free, refolded complex of HLA-A201 heavy chain, beta-2 microglobulin and LMP-1 peptide …) (human; Epstein-Barr virus). The experiment in a line: dose response curve, antigen at 60 ng/ml (method of Beatty et al.).
Assay [2] has the same target. The experiment in a line: dose response curve, antigen at 120 ng/ml (method of Beatty et al.).
Assay [3] shares this target. The experiment in a line: Kaff from OD50 at two antigen concentrations (Beatty et al.), [Ag] 15 ng/ml.
Assay [4] has the same target. The assay can be described thus: Kaff from OD50 at two antigen concentrations (Beatty et al.), [Ag] 120 ng/ml.
Assay [5] has the same target. The assay can be described thus: Kaff from OD50 at two antigen concentrations (Beatty et al.), [Ag] 60 ng/ml.
Assay [6] has the same target. The assay can be described thus: dose response curve, antigen at 30 ng/ml (method of Beatty et al.).
The target is the same in assay [7]. The experiment in a line: dose response curve, antigen at 15 ng/ml (method of Beatty et al.).
For assay [8] the target is unchanged. The experiment in a line: Kaff from OD50 at two antigen concentrations (Beatty et al.), [Ag] 30 ng/ml.
The target is the same in assay [9]. The assay can be described thus: average Kaff (Beatty et al. method).

“BB7.2 (pan anti-HLA-A2), commercially available anti-HLA-A2 antibody”: the [mAb] at OD50 amounted to 54.1 ng/mL in assay [1], 26.1 ng/mL in assay [2], 68.1 ng/mL in [6] and 121 ng/mL in [7]. Also, the Ka in assay [3] was 4.31e+08 M⁻¹; in assay [4] it was 5.7e+08 M⁻¹; in [5], 1.01e+09 M⁻¹; in assay [8] it was 8.71e+08 M⁻¹; in assay [9] it was 7.17e+08 M⁻¹.
